{"source": "patent US20040063697A1", "about": "“Compositions of cyclooxygenase-2 selective inhibitors and thrombolytic agents for the treatment or prevention of a vaso-occlusive event” (priority 2002, published 2004)", "origin": "cited, not measured here", "molecules": {"B1": {"name": "Tenecteplase: human derivative of t-PA (protein, UniProt P00750 36-562, looked up, variant T103N N117Q K296A H297A R298A R299A)", "Tissue-type plasminogen …": "SYQVICRDEKTQMIYQQHQSWLRPVLRSNRVEYCWCNSGRAQCHSVPVKSCSEPRCFNGGTCQQALYFSDFVCQCPEGFAGKCCEIDTRATCYEDQGISYRGNWSTAESGAECTNWQSSALAQKPYSGRRPDAIRLGLGNHNYCRNPDRDSKPWCYVFKAGKYSSEFCSTPACSEGNSDCYFGNGSAYRGTHSLTESGASCLPWNSMILIGKVYTAQNPSAQALGLGKHNYCRNPDGDAKPWCHVLKNRRLTWEYCDVPSCSTCGLRQYSQPQFRIKGGLFADIASHPWQAAIFAAAAASPGERFLCGGILISSCWILSAAHCFQERFPPHHLTVILGRTYRVVPGEEEQKFEVEKYIVHKEFDDDTYDNDIALLQLKSDSSRCAQESSVVRTVCLPPADLQLPDWTECELSGYGKHEALSPFYSERLKEAHVRLYPSSRCTSQHLLNRTVTDNMLCAGDTRSGGPQANLHDACQGDSGGPLVCLNDGRMTLVGIISWGLGCGQKDVPGVYTKVTNYLDWIRDNMRP"}}, "key": {"plasminogen": {"biological_target": "plasminogen (Homo sapiens, UniProt P00747)", "sequence (P00747 20-810 limits assumed)": "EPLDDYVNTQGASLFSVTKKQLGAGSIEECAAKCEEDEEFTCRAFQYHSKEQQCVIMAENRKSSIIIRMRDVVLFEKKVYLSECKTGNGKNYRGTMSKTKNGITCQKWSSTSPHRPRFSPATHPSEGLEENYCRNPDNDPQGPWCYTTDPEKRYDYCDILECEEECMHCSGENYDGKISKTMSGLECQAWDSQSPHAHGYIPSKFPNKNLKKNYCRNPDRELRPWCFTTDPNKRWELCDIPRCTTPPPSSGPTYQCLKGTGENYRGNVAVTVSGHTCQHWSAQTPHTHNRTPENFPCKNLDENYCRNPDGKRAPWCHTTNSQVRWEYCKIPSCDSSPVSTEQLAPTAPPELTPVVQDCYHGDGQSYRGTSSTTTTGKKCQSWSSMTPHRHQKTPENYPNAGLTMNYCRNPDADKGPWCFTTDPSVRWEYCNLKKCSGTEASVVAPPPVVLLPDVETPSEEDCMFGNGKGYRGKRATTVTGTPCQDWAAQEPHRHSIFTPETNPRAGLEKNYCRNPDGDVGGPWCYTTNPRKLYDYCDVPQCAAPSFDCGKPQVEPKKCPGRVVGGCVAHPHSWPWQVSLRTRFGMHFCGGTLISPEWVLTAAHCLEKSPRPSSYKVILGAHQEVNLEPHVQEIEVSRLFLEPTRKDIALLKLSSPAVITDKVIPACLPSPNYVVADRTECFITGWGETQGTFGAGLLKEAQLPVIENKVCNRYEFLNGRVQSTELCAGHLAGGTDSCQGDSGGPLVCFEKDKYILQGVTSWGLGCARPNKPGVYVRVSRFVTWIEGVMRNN"}, "[1]": {"assay": "not given", "remark": "listed apart in the source"}}, "data": [{"molecule": "B1", "values": [{"measurement": "Method of Plasminogen Activation", "setting": "plasminogen", "result": "Direct"}, {"measurement": "Antigenicity", "setting": "in vivo", "result": "No"}, {"measurement": "immune response", "setting": "when administered to a human", "result": "no immune response is elicited"}, {"measurement": "Elimination", "setting": "[1]; in vivo", "result": "Hepatic"}, {"measurement": "Half-Life", "setting": "[1]; in vivo", "result": "20 to 25", "unit": "min"}, {"measurement": "plasma clearance time and half-life", "setting": "[1]; in words", "result": "lower plasma clearance time and a longer half-life"}]}]}
